Laboratory results published in patent publication US11091559B2, “Anti-ALK antibodies and methods for use thereof” (Celldex Therapeutics, Inc., priority 2015, dated 2021).

Experiments:
[1] = biological target: C-terminal region of human ALK ECD (T637-S1038) (Homo sapiens, UniProt Q9UM73); experiment: Competitive binding assay (epitope binning) by flow cytometry; conditions: antibodies to the C-terminal region
Method: Antibodies that bind to the C-terminal region of human ALK ECD (T637-S1038) were further characterized using a competitive binding assay. A pairwise matrix approach was used whereby each antibody was fluorescently labeled and tested for its ability to bind to ALK-expressing cells pre-incubated with an unlabeled antibody. The ability of both antibodies to bind the C-terminal domain simultaneously was tested via flow cytometry. If both antibodies bound simultaneously, they were put into different bins and considered to belong to a separate epitope class.

[2] = system: NB1 cells; experiment: Crizotinib titration and co-titration with ALK antibodies, killing of NB1 cells; assay type: cell-based, human
[3] = biological target: murine ALK (purified mouse ALK antigen) (Mus musculus, UniProt P97793); experiment: Mouse ALK cross-reactivity, solid-state ELISA; assay type: binding; design: key: − none; + weak; ++ moderate; +++ strong; conditions: cross-reactivity with murine ALK
Chain of murine ALK (purified mouse ALK antigen) (P97793 19-1042 limits assumed): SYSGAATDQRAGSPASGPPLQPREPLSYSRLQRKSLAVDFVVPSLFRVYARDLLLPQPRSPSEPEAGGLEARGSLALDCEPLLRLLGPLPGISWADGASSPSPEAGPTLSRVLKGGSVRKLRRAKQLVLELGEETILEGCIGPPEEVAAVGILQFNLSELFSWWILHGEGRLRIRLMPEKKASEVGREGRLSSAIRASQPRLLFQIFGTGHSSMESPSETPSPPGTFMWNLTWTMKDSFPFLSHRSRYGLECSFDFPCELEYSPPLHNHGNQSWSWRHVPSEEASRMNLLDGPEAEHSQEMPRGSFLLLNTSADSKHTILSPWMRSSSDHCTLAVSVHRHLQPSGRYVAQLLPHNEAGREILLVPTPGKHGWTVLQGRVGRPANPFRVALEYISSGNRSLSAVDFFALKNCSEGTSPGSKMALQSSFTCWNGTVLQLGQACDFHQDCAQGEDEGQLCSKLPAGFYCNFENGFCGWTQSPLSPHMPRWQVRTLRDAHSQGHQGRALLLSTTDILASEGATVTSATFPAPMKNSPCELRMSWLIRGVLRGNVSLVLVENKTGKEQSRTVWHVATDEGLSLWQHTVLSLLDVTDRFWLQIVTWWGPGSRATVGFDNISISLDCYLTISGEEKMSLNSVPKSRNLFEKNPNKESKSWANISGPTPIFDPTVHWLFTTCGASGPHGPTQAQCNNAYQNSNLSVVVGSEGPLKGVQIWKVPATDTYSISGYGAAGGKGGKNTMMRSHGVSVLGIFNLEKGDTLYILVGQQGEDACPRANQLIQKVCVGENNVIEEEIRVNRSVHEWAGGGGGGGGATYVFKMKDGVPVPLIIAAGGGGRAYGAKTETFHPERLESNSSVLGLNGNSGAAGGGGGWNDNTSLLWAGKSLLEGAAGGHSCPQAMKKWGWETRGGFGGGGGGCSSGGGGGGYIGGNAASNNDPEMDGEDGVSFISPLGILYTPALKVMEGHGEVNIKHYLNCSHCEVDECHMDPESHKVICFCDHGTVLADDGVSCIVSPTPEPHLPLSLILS
Method: Purified mAbs were evaluated for their ability to bind murine ALK by solid-state ELISA, or flow cytometry on Neuro-2a cells that express low levels of endogenous murine ALK. […]

[4] = system: ALK (total protein levels in NB1 cells); experiment: ALK turnover (total protein levels) by Western blot, 24 hour treatment of NB1 cells; assay type: cell-based, human; design: key: − none; + weak; ++ moderate; +++ strong
From the text: FIG. 5 depicts a Western blot of a panel of ALK antibodies.
See also Table 18, below.

[5] = system: ALK (basal phosphorylation in NB1 cells); experiment: Western blot of ALK phosphorylation in NB1 cells; assay type: cell-based, human; conditions: for ALK phosphorylation: effect in words
Method: Lysed cells were subjected to SDS-PAGE, transferred to nitrocellulose and immunoblotted with antibodies against total, and phospho-specific ALK, AKT, and MAPK. FIG. 4B depicts an ELISA of NB1 cells grown in media with reduced serum and treated with 30-100 nM of each antibody for 1-2 hours. Cell lysates were incubated on ELISA plates with an anti-ALK antibody, followed by incubation with a pan phosphotyrosine antibody coupled to HRP.
Cell lysates were subjected to SDS-PAGE and transferred to nitrocellulose. Immunoblotting was performed with antibodies against total, and phospho-specific ALK, AKT, and MAPK (purchased from Cell Signaling and utilized per manufacturer's instructions). HRP (horse radish peroxidase)-conjugated secondary antibodies (Thermo Scientific, Waltham, Mass.) were used along with Supersignal West Pico Chemiluminescent Substrate (Thermo Scientific, Waltham, Mass.) to image blots.
Anti-ALK monoclonal antibodies generated in Example 1 were evaluated via Western blotting for their ability to activate or inhibit basal levels of ALK phosphorylation in NB1 cells (FIG. 4A). A subset of ALK antibodies stimulated ALK tyrosine phosphorylation and a different subset of antibodies inhibited basal levels of ALK phosphorylation. See also Table 18, below. […] That is, ALK antibodies that stimulated ALK tyrosine phosphorylation increased MAPK and AKT phosphorylation, whereas ALK antibodies that inhibited ALK tyrosine phosphorylation decreased basal levels of MAPK and AKT phosphorylation (FIG. 4A). Similar results were obtained in ELISA-based ALK phosphorylation assays from lysates of NB1 cells treated with ALK antibodies (FIG. 4B).

[6] = system: ALK on the surface of NB1 cells; experiment: KD determination by flow cytometry on NB1 cells; assay type: binding; conditions: NB1 (human) cells, FACS, mean
Method: FIG. 3 depicts the apparent affinities (KD) of ALK antibodies for ALK expression on the surface of NB1 cells. KD was determined by flow cytometry. Titration of each antibody on NB1 cells for 2-4 hours at 4° C. was followed by incubation with a fluorescently-labeled secondary antibody. The normalized mean fluorescent intensity […] shown as “% Max binding” was plotted as a function of antibody concentration.
Flow cytometry was utilized to measure the affinity at steady state (KD) with which different ALK antibodies bind to ALK on the surface of NB1 cells (FIG. 3). Titration of each antibody on NB1 cells for 2-4 hours at 4° C. was followed by incubation with a fluorescently-labeled secondary antibody. The normalized mean fluorescent intensity (MFI) shown as “% Max binding” was plotted as a function of antibody concentration. The data were fit to a one site binding isotherm using GraphPad Prism, from which affinity values were derived.
(§1) Amino acid residues that differ between rat ALK and mouse ALK are boxed. KD values for both NB1 (human) cells and Neuro2a (mouse) cells were also determined.

[7] = biological target: human ALK (hALK, purified ALK protein) (Homo sapiens, UniProt Q9UM73); experiment: Monovalent affinity of humanized antibodies, BLitz System, human ALK; assay type: binding; conditions: for Kd: BLitz, purified ALK protein at 70 μg/mL, single binding site fit, antibody by plate position of Table 19; for potency estimated from few doses: single dose kinetics
Chain of human ALK (hALK, purified ALK protein) (Q9UM73 with tags, fused parts or gaps): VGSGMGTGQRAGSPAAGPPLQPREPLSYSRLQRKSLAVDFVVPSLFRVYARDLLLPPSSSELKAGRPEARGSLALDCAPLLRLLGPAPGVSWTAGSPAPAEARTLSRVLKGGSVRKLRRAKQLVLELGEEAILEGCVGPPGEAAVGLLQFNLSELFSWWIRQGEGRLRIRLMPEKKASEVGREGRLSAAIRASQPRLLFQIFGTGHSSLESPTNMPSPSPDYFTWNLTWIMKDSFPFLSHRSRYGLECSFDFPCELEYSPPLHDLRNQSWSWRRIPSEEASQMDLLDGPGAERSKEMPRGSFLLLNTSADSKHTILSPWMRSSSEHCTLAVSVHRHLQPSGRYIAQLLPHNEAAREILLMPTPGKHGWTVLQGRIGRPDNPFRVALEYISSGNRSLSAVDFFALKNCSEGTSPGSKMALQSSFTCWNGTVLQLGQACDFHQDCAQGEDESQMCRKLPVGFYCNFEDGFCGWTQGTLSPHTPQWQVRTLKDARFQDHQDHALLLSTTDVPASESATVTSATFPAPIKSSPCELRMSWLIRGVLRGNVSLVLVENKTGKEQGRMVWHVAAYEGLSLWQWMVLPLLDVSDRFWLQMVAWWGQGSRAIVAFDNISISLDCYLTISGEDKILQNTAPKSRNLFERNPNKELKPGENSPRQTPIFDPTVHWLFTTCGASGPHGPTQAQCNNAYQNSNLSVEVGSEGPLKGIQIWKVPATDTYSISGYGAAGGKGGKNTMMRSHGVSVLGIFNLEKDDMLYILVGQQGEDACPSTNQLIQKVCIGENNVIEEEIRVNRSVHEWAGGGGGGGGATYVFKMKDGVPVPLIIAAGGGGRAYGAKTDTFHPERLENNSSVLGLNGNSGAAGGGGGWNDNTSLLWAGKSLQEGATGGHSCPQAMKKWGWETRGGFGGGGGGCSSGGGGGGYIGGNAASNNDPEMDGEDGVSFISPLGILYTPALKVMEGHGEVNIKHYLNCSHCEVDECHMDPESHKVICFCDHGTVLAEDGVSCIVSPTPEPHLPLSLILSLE
Method: The humanized ALK antibodies designed in Example 1 were tested for monovalent affinity, wherein the kinetic data are fit to a single binding site equation to obtain relative affinity values.
(§2) Kinetic measurements of the monovalent affinity of the 96 humanized ALK antibody variants (Ab351-Ab446) were collected. Affinity ranking was performed using a BLitz® System (ForteBio, Menlo Park, Calif.). Humanized anti-ALK antibodies were immobilized at 0.5 mg/mL using Protein A tips. Once baseline stability was ensured, purified ALK proteins at 70 μg/mL were added. The resulting kinetic data were fit to a single binding site equation, from which the quoted monovalent KD values were derived.
as §1

[8] = biological target: T1, cell surface mALK on Neuro2a cells (Mus musculus, UniProt P97793); experiment: KD of humanized antibodies on Neuro2a (mouse) cells; assay type: binding; conditions: FACS, mean
T1 construct: Neuro-2a cells that express low levels of endogenous murine ALK; endogenous in cells; host or cells: Neuro-2a (Neuro2a) mouse neuroblastoma cells
T1 sequence (P97793 19-1621): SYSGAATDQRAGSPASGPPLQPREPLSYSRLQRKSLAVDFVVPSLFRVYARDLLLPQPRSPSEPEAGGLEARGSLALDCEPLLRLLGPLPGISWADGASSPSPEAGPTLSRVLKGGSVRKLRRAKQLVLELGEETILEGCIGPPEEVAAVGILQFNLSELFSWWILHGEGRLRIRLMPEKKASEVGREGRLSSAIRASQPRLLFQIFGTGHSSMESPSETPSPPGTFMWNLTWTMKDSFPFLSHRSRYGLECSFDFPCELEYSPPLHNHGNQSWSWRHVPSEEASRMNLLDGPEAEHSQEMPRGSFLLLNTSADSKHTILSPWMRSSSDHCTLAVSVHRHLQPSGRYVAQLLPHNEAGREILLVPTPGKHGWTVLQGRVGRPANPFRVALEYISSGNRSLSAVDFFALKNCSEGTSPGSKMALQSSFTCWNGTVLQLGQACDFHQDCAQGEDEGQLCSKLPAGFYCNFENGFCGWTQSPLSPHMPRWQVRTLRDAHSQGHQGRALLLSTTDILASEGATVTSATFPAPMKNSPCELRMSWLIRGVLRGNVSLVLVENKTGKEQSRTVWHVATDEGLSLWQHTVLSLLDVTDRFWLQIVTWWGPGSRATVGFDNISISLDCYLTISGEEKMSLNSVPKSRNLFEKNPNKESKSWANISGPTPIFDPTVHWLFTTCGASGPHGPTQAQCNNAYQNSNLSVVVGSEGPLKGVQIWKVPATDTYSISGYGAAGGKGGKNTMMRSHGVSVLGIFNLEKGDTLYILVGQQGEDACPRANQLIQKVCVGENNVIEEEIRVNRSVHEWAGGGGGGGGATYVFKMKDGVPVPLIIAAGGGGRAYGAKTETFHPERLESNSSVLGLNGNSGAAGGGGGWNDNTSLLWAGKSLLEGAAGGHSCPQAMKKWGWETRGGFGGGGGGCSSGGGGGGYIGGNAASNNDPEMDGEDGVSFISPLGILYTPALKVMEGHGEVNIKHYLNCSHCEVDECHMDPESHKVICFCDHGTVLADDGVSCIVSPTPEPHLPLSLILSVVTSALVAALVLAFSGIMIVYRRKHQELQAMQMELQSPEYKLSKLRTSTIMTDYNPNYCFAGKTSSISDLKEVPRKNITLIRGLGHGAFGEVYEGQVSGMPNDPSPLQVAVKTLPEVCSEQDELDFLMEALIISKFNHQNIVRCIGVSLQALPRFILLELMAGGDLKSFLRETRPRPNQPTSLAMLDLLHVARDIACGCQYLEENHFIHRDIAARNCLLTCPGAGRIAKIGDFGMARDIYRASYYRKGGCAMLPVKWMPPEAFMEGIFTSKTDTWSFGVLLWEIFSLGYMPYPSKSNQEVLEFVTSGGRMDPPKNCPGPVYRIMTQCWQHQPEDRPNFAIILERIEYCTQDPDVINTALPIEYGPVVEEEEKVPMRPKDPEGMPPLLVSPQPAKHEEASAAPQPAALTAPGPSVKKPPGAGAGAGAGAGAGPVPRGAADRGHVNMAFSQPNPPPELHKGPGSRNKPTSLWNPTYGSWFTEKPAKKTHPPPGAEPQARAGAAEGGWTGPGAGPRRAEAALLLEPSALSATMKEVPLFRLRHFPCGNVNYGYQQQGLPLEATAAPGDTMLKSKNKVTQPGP
Method: as §1

[9] = biological target: T2, mouse ALK (mALK) (Mus musculus, UniProt P97793); experiment: Monovalent affinity of humanized antibodies, BLitz System, mouse ALK; assay type: binding; conditions: single dose kinetics
T2 construct: mouse ALK (mALK)
T2 sequence (P97793 19-1042): as the sequence (P97793 19-1042 limits assumed) above
Method: as §2, §1

Molecule	Bin/Domain (bin) [1]	effect on the anti-proliferative effect of crizotinib ([2]; co-titration of crizotinib with the antibody)	mouse ALK binding [3]	ALK turnover [4]	effect on ALK activity (ALK inhibitory or ALK agonistic antibody) [5]	ALK phosphorylation [5]	effect on NB1 cell death caused by crizotinib ([2]; constant amount of antibody added to crizotinib titration)	Kd [6] [nM]	Kd [7] [nM]	potency estimated from few doses [7] [nM]	Kd [8] [nM]	potency estimated from few doses [9] [nM]
Ab327: anti-ALK monoclonal antibody; VL SEQ ID NO: 409, VH SEQ ID NO: 410 (antibody, V domains shown, VH domain - Ab327; VL domain - Ab327) VH: DVKLVESGEGLVKPGGSLKLSCAASGFTFSSYAMSWVRQTPEKRLEWVTYISSGGDYIYYADTVKGRFTISRDNARNTLYLQMSSLKSEDTAMYYCTRERIWLRRFFDVWGTGTTVTVSS VL: DIVMTQSQKFMSTSVGDRVSITCKASQNVGTAVAWYQLKPGQSPKLLIYSASNRFTGVPDRFTGSGSGTDFTLTISNMQSEDLADYFCQQYSSYPLTFGSGTKLEIKR	2	enhanced	+++	++	inhibitory	inhibitor						
Ab323: anti-ALK monoclonal antibody; VL SEQ ID NO: 401, VH SEQ ID NO: 402 (antibody, V domains shown, VH domain - Ab323; VL domain - Ab323) VH: QVQLQQSGAELVKPGASVKISCKTSGYTFSNYWMNWVKQRPGKGLEWIGQIFPGDADANYNGKFKGKATLTADKSSSAAFMQLSSLTSEDSAVYFCARFSYDGAFAYWGQGTLVTVS VL: DIVMTQSHKFMSTSVGDRVSITCKASQDVSTAVAWYQQKPGQSPKPLIYWASTRHTGVPDRFTGSGSGTDYTLTISSVQTEDLALYYCQQHYSTPRTFGGGTKLEIKR	1		+++	++	agonistic	weak agonist	partially rescued					
Ab400: humanized anti-ALK antibody; VL SEQ ID NO: 425, VH SEQ ID NO: 430 (antibody, V domains shown, VH domain - Ab352; VL domain - Ab399) VH: EVQLVQSGPEVKKPGTSVKLSCKASGYTFTSYWMHWVRQARGQRLEWIGYIKPSSGYTKYNQKFKDRATLTADKSTSTAYMELSSLRSEDTAVYYCARDYYGSSSWFAYWGQGTLVTVSS VL: EIVMTQSQATMSTSVGERATLSCKASQNVGTNVAWYQQKPGQSPKALIYSASYRYSGVPARFSGSGSGTDFTLTISSVEPEDFAVYYCQQYNSYPYMYTFGQGTKLEIK								1.3	81.5	59	7.4	
Ab402: humanized anti-ALK antibody; VL SEQ ID NO: 425, VH SEQ ID NO: 432 (antibody, V domains shown, VH domain - Ab354; VL domain - Ab399) VH: EVQLVQSGAEVKKPGTSVKLSCKASGYTFTSYWMHWVRQARGQRLEWIGYIKPSSGYTKYAQKFQERVTLTADKSTSTAYMELSSLRSEDTAVYYCARDYYGSSSWFAYWGQGTLVTVSS VL: EIVMTQSQATMSTSVGERATLSCKASQNVGTNVAWYQQKPGQSPKALIYSASYRYSGVPARFSGSGSGTDFTLTISSVEPEDFAVYYCQQYNSYPYMYTFGQGTKLEIK								1.5	87.6	71	2.8	147
Ab403: humanized anti-ALK antibody; VL SEQ ID NO: 425, VH SEQ ID NO: 433 (antibody, V domains shown, VH domain - Ab355; VL domain - Ab399) VH: QVQLVQSGAEVAKPGASVKLSCKASGYTFTSYWMHWVKQAPGQGLEWIGYIKPSSGYTKYNQKFKDKATLTADKSTSTAYMELRSLRSDDTAVYYCARDYYGSSSWFAYWGQGTLVTVSS VL: EIVMTQSQATMSTSVGERATLSCKASQNVGTNVAWYQQKPGQSPKALIYSASYRYSGVPARFSGSGSGTDFTLTISSVEPEDFAVYYCQQYNSYPYMYTFGQGTKLEIK								0.73	94.2	80	4.15	120
Ab355: humanized anti-ALK antibody; VL SEQ ID NO: 421, VH SEQ ID NO: 433 (antibody, V domains shown, VH domain - Ab355; VL domain - Ab351) VH: QVQLVQSGAEVAKPGASVKLSCKASGYTFTSYWMHWVKQAPGQGLEWIGYIKPSSGYTKYNQKFKDKATLTADKSTSTAYMELRSLRSDDTAVYYCARDYYGSSSWFAYWGQGTLVTVSS VL: EIVMTQSPAFLSVTPGEKVTITCKASQNVGTNVAWYQQKPDQAPKALIYSASYRYSGVPSRFSGSGSGTDFTLTISSLEAEDAATYYCQQYNSYPYMYTFGQGTKLEIK								1.26			5.1	
Ab352: humanized anti-ALK antibody; VL SEQ ID NO: 421, VH SEQ ID NO: 430 (antibody, V domains shown, VH domain - Ab352; VL domain - Ab351) VH: EVQLVQSGPEVKKPGTSVKLSCKASGYTFTSYWMHWVRQARGQRLEWIGYIKPSSGYTKYNQKFKDRATLTADKSTSTAYMELSSLRSEDTAVYYCARDYYGSSSWFAYWGQGTLVTVSS VL: EIVMTQSPAFLSVTPGEKVTITCKASQNVGTNVAWYQQKPDQAPKALIYSASYRYSGVPSRFSGSGSGTDFTLTISSLEAEDAATYYCQQYNSYPYMYTFGQGTKLEIK								1.4			7.7	
